Test results reported in US20160017016A1 (AstraZeneca / MedImmune, published 2016).
*1 amine or outer side, *2 acyl side, *3 side chain or, on linkers, in order; H or OH if unused. Primed or numbered codes have the meaning given here. Where no end group is shown, it is not given here. Side-chain parts run from the residue outwards. [ ]: non-standard residue; d: D form. The star is where a group is joined. PEG4′ = 4 PEG units (K(PEGxpalm): Lys with x PEG units and palmitoyl at epsilon N, C-terminal (PEG)4); γGlu = O=C(O)[C@H](CCC(=O)[*:2])N[*:1]; Palmitoyl = CCCCCCCCCCCCCCCC(=O)*; PEG12′ = not defined here

What was measured:
[1] = target: human GLP-1 receptor (GLP-1R) (human, UniProt P43220 24-463); assay: cell-based or functional assay
[2] = target: human glucagon receptor (GCGR) (human, UniProt P47871 26-477); assay: cell-based or functional assay
Sequence of human glucagon receptor (GCGR) (P47871 26-477): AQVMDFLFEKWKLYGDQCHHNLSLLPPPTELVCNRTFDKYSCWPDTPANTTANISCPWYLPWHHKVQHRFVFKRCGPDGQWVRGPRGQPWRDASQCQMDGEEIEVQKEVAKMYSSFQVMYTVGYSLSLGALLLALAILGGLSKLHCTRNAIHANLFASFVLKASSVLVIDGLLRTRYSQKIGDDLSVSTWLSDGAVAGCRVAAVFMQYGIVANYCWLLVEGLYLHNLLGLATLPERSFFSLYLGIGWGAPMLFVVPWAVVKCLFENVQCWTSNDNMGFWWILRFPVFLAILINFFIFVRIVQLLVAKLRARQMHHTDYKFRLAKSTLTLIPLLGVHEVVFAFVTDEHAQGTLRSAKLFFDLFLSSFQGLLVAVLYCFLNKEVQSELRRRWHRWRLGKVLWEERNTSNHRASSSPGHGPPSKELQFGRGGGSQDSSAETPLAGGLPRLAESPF

Binder | cAMP activity, GLP1 EC50 nM [1] | cAMP activity, Glcg EC50 nM [2]
HSQGTFTSDYSKYLDKRRAQDFVQWLV[PEG4′] (not fully specified (residue 16); printed as HSQGTFTSDYSKYLDB1RRAQDFVQWLVZ4) [g425] | 0.008 nM | 0.002 nM
HSQGTFTSDYSKYKDSRRAQDFVQWLV[PEG4′] (not fully specified (residue 14); printed as HSQGTFTSDYSKYB1DSRRAQDFVQWLVZ4) [g427] | 0.004 nM | 0.002 nM
HGQGTFTSDYSKYLESK([γGlu-Palmitoyl])RAQDFVQWLV[PEG4′] [g498] | 0.6 nM | 2 nM
HGQGTFTSDYSEYLDSK([γGlu-Palmitoyl])RAQDFVQWLV[PEG4′] [g695] | 0.2 nM | 4 nM
HSQGTFTSDYSKYLDSRRAXDFVQWLV (K(PEG4-palm) at 20; C-terminal PEG4) [g457] | 0.03 nM | 0.004 nM
HGQGTFTSDYSKYLDSK([γGlu-Palmitoyl])RAEDFVQWLV[PEG4′] [g693] | 0.1 nM | > 2 nM
HGQGTFTSDYSKYLDSK([γGlu-Palmitoyl])RAQDFVEWLV[PEG4′] [g694] | 0.07 nM | 0.2 nM
HSQGTFTSDYSKYLDSRKAQDFVQWLV[PEG4′] (not fully specified (residue 18); printed as HSQGTFTSDYSKYLDSRB1AQDFVQWLVZ4) [g423] | 0.01 nM | 0.004 nM
HSQGTFTSDYSKYLDSK([γGlu-Palmitoyl])RAQRDFVAWLV[PEG12′] (not fully specified; printed as HSQGTFTSDYSKYLDSBRAQRDFVAWLVZ12) [g828] | 0.04 nM | 0.02 nM
HSQGTFTSDYSKYLDK([PEG4′-Palmitoyl])SRARDFVAWLV[PEG4′] [g972] | 0.03 nM | 0.03 nM
HSQGTFTSDYSRYLDSK([γGlu-Palmitoyl])RARDFVAWLV[PEG4′] [g827] | 0.2 nM | 0.04 nM
